# Reference: patent publication US7115260B2, “Interleukin-1β converting enzyme like apoptotic protease-6” (Human Genome Sciences, Inc., priority 1996, dated 2006)
# Peptide text beside a SMILES is read from it. * marks the point of attachment. Cbz = O=C(OCc1ccccc1)*; CH2F = FC*
# T1: ICE LAP-6 (Homo sapiens, UniProt P55211, A28V/A96G/Q221R)
# T1 construct: transiently transfected with an expression vector encoding the full-length ICE LAP-6 protein (ICE LAP-6-flag); expressed in transfected cells; host or cells: MCF7 breast carcinoma cells, pcDNA3 vector
# T1 sequence (P55211 1-416 A28V/A96G/Q221R): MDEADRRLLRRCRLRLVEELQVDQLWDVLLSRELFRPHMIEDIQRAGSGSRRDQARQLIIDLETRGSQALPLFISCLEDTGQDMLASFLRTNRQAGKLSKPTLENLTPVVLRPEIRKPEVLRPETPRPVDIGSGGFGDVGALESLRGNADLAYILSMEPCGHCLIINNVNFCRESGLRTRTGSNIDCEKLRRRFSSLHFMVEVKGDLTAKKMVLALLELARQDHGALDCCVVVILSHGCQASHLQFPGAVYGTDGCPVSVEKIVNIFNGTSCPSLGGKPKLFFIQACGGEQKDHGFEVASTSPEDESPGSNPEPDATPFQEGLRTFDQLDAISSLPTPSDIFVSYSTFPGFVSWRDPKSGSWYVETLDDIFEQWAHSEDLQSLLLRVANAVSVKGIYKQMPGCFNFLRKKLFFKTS
# T2: pro-ICE LAP-6 (Homo sapiens, UniProt P55211, A28V/A96G/Q221R)
# T2 construct: made in house; host or cells: cell-free in vitro transcription/translation, TNT kit (Promega)
# T2 sequence (P55211 1-416 A28V/A96G/Q221R): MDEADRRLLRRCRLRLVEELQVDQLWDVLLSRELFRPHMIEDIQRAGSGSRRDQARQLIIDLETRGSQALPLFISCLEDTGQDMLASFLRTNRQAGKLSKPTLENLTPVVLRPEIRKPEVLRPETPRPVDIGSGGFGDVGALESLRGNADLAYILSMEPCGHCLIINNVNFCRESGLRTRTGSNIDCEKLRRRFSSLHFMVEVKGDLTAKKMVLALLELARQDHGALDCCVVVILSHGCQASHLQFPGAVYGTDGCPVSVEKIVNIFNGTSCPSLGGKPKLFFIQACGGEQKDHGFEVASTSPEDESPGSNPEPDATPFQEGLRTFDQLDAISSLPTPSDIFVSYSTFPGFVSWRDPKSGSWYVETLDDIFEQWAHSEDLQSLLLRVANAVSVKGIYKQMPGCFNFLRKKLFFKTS
# T3: pro-Yama (Homo sapiens, UniProt P42574)
# T3 construct: His6; made in house; host or cells: cell-free in vitro transcription/translation, TNT kit (Promega)
# T3 sequence (P42574 1-277): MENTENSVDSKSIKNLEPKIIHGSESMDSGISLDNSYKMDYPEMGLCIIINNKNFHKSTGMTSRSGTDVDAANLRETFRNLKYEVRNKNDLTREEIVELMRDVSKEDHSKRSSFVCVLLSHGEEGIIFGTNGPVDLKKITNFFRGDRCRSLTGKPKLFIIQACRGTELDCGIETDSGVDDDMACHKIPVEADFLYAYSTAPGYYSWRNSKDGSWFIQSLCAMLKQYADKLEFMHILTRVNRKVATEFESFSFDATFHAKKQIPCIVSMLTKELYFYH
# Assays:
# ICE LAP-6 = molecular target: T1, ICE LAP-6; assay: Inhibition of ICE LAP-6 induced apoptosis in transfected MCF7 cells; assay type: cell-based; details: MCF7 cells transfected with ICE LAP-6-flag
# Description: (§1) MCF7 breast carcinoma cells were transiently transfected as described previously (Chinnaiyan, A. M., et al (1995) Cell 81, 505–512). Briefly, 2.5×10^5 MCF7 cells were transfected with 0.25 μg of the reporter plasmid pCMV β-galactosidase plus 1 μg of test plasmid in 6-well tissue culture dishes using lipofectamine as per manufacturer's instructions. The transfection was carried out in 1 ml of Opti-MEM Minimal Media (GMBCO-BRL) and after 5 hours, 1 ml of serum-containing growth media was added. Two days later, the cells were fixed with 0.5% glutaraldehyde and stained with X-gal for 4 hours. Cells were visualized by phase-contrast microscopy. At least 300 β-galactosidase-positive cells were counted for each transfection (n=3) and identified as apoptotic or nonapoptotic based on morphological alterations typical of adherent cells undergoing apoptosis including becoming rounded, condensed, and detaching from the dish (Cohen, J. J. (1993) Immunology Today 14, 126–130). […] Samples were analyzed by immunoblotting with anti-PARP monoclonal antibody C-2-10 as described previously Tewari, M., et al. (1995) Cell 81, 801–809).
# (§2) To study the functional role of ICE LAP-6, MCF7 breast carcinoma cells were transiently transfected with an expression vector encoding the full-length ICE LAP-6 protein (ICE LAP-6-flag) and subsequently assessed for apoptotic features. […]
# pro-ICE LAP-6 = molecular target: T2, pro-ICE LAP-6; assay: Proteolytic activation of in vitro-translated pro-ICE LAP-6 by granzyme B; assay type: biochemical; details: 20 pmole granzyme B, 4 hours at 37° C., SDS-PAGE
# pro-Yama = molecular target: T3, pro-Yama; assay: Proteolytic activation of in vitro-translated pro-Yama by granzyme B; assay type: biochemical; details: purified granzyme B
# [1] = test system: MCF7 breast carcinoma cells; assay: Apoptosis assay in transiently transfected MCF7 cells; assay type: cell-based; details: transient transfection of expression vector, morphology of β-galactosidase-positive cells, two days
# Description: as §1, §2
# PARP = PARP cleavage by granzyme B-processed protease (anti-PARP immunoblot); assay type: biochemical; details: after granzyme B processing, anti-GraB added, 2 hours, 37° C.
# Description: as §1, with “801–809). […]” for “801–809).”
Molecule,induction of apoptosis / cell death on overexpression [1],ability to cleave PARP (PARP),also measured
COC(=O)C[C@H](NC(=O)[C@H](C)NC(=O)[C@@H](NC(=O)OCc1ccccc1)C(C)C)C(=O)CF [z-VAD fmk] (Cbz-Val-Ala-Asp(OMe)-CH2F),,,inhibition of ICE LAP-6 induced apoptosis (ICE LAP-6): inhibited
"granzyme B: secreted serine protease, effector of cytotoxic T cell-mediated apoptosis",,,proteolytic processing of pro-ICE LAP-6 (pro-ICE LAP-6): proteolytically processed into 3 fragments; activation of Yama in vitro (pro-Yama): directly activates
"ICE LAP-6: novel human member of the ICE/ced-3 family of cysteine proteases, active site QACGG, predicted 45.8 kD (protein) MDEADRRLLRRCRLRLVEELQVDQLWDVLLSRELFRPHMIEDIQRAGSGSRRDQARQLIIDLETRGSQALPLFISCLEDTGQDMLASFLRTNRQAGKLSKPTLENLTPVVLRPEIRKPEVLRPETPRPVDIGSGGFGDVGALESLRGNADLAYILSMEPCGHCLIINNVNFCRESGLRTRTGSNIDCEKLRRRFSSLHFMVEVKGDLTAKKMVLALLELARQDHGALDCCVVVILSHGCQASHLQFPGAVYGTDGCPVSVEKIVNIFNGTSCPSLGGKPKLFFIQACGGEQKDHGFEVASTSPEDESPGSNPEPDATPFQEGLRTFDQLDAISSLPTPSDIFVSYSTFPGFVSWRDPKSGSWYVETLDDIFEQWAHSEDLQSLLLRVANAVSVKGIYKQMPGCFNFLRKKLFFKTSHHHHHH",caused cell death,active,
Yama: ICE/Ced-3 family cysteine protease; p17 and p12 subunits derived from a 32 kDa proenzyme (protein) MENTENSVDSKSIKNLEPKIIHGSESMDSGISLDNSYKMDYPEMGLCIIINNKNFHKSTGMTSRSGTDVDAANLRETFRNLKYEVRNKNDLTREEIVELMRDVSKEDHSKRSSFVCVLLSHGEEGIIFGTNGPVDLKKITNFFRGDRCRSLTGKPKLFIIQACRGTELDCGIETDSGVDDDMACHKIPVEADFLYAYSTAPGYYSWRNSKDGSWFIQSLCAMLKQYADKLEFMHILTRVNRKVATEFESFSFDATFHAKKQIPCIVSMLTKELYFYHHHHHHH,,active,
"ICE LAP-6 mt: mutant version of ICE LAP-6 with the catalytic cysteine residue (Cys286) altered to an alanine (protein, UniProt P55211 1-416, looked up, variant C287A) MDEADRRLLRRCRLRLVEELQVDQLWDALLSRELFRPHMIEDIQRAGSGSRRDQARQLIIDLETRGSQALPLFISCLEDTGQDMLASFLRTNRQAAKLSKPTLENLTPVVLRPEIRKPEVLRPETPRPVDIGSGGFGDVGALESLRGNADLAYILSMEPCGHCLIINNVNFCRESGLRTRTGSNIDCEKLRRRFSSLHFMVEVKGDLTAKKMVLALLELAQQDHGALDCCVVVILSHGCQASHLQFPGAVYGTDGCPVSVEKIVNIFNGTSCPSLGGKPKLFFIQAAGGEQKDHGFEVASTSPEDESPGSNPEPDATPFQEGLRTFDQLDAISSLPTPSDIFVSYSTFPGFVSWRDPKSGSWYVETLDDIFEQWAHSEDLQSLLLRVANAVSVKGIYKQMPGCFNFLRKKLFFKTS",did not induce apoptotic changes,,
